One data set has as its system MDA-MB-231 xenograft. The experiment in a line: MDA-MB-231 murine xenograft efficacy model. The data set is classed as in vivo, mouse. The method, then: Murine xenograft experiments were conducted at WuXi AppTec and/or Charles River Laboratories and the care and use of animals was conducted in accordance with the regulations of the Association for Assessment and Accreditation of Laboratory Animal Care (AAALAC). MDA-MB-231 tumor cells (ATCC, Manassas, VA, cat #HTB-26) were grown and maintained in L15 medium supplemented with 10% heat inactivated fetal bovine serum, 1% Antibiotic-Antimycotic, and L-glutamine (2 mM) at 37° C. in an atmosphere in 5% CO2, 95% air. BALB/c Nude, female, 6-8 weeks, weighing approximately 18-22 g were purchased from Vital River Laboratory Animal Technology Co., LTD. Mice were inoculated subcutaneously at the right flank with MDA-MB-231 tumor cells (e.g., triple negative breast cancer cells) (10×10^6) in 0.2 mL of PBS with Matrigel (1:1) for tumor development. Animals were randomized and treatment was started when the average tumor volume reached approximately 150-200 mm^3 for the efficacy study. Dosing volume was adjusted based on body weight and was administered at 10 mL/Kg. […] Free MMAE payload was also tested, and similarly dissolved in 25 mM Histidine 10% sucrose pH 7 and one or more of the following doses, 0.6, 0.06 mg/kg, were administered to the mice i.v. at a QW×4 schedule. Tumor sizes were measured twice weekly in two dimensions using a caliper, and the volume in mm^3 calculated using the formula: V=0.5 a×b^2, where a and b are the long and short diameters of the tumor, respectively. TGI was calculated for each group using the formula: TGI (%)=[1−(Ti−T0)/(Vi−V0)]×100; where Ti is the average tumor volume of a treatment group on a given day, TO is the average tumor volume of the treatment group on the first day of treatment, Vi is the average tumor volume of the vehicle control group on the same day with Ti, and V0 is the average tumor volume of the vehicle group on the first day of treatment.
To characterize the effects of the MMAE payload alone, we included free MMAE at molar equivalency to PDCs, and tested at 0.6 and 0.06 mg/kg, as separate arms.
To characterize the effects of the MMAE payload alone, we included free MMAE at molar equivalency to PDCs, and tested at 0.6 mg/kg.

Data set [1] in a line: Murine hematotoxicity assay. In kind it is in vivo, mouse. The following applies: 3 mg/kg i.v. QW×4, BALB/c mice. The method, then:
(§1) Murine hematotoxicity experiments were conducted at Charles River Laboratories and the care and use of animals was conducted in accordance with the regulations of the Association for Assessment and Accreditation of Laboratory Animal Care (AAALAC). Wild type BALB/c, female, 7-8 weeks, weighing approximately 18-22 g were randomized and dosed intravenously with control or test articles at a QW×4 schedule. Dosing volume was adjusted based on body weight and was administered at 10 mL/Kg. PDCs were dissolved in 25 mM Histidine 10% sucrose pH 7 and 3 mg/kg was administered. Free MMAE payload was also tested, and similarly dissolved in 25 mM Histidine 10% sucrose pH 7 and administered to the mice at a dose of […] by i.v. injection at a QW×4 schedule. 3 days following each dose, 150 μL of whole blood was collected via submandibular method and placed in K2 EDTA tubes stored on ice. Blood neutrophil counts were performed on the day of collection by IDEXX labs. Body weights were recorded twice a week until study endpoint.
as §1, with “As outlined in the material” for “Murine hematotoxicity experiments were conducted at Charles River Laboratories”, “methods” for “the care and use”, “Example 1, wild” for “animals was conducted in accordance with the regulations of the Association for Assessment and Accreditation of Laboratory Animal Care (AAALAC). Wild”, “PDCs were dissolved in 25 mM Histidine 10% sucrose pH 7 and 3 mg/kg was administered.” left out

Another data set addresses T1, mouse SORT1 (76-753)-His (mouse, UniProt Q6PHU5 76-753).
T1 construct: range 76-753; Amine-coupled to CM5 chip for SPR
T1 sequence (looked up): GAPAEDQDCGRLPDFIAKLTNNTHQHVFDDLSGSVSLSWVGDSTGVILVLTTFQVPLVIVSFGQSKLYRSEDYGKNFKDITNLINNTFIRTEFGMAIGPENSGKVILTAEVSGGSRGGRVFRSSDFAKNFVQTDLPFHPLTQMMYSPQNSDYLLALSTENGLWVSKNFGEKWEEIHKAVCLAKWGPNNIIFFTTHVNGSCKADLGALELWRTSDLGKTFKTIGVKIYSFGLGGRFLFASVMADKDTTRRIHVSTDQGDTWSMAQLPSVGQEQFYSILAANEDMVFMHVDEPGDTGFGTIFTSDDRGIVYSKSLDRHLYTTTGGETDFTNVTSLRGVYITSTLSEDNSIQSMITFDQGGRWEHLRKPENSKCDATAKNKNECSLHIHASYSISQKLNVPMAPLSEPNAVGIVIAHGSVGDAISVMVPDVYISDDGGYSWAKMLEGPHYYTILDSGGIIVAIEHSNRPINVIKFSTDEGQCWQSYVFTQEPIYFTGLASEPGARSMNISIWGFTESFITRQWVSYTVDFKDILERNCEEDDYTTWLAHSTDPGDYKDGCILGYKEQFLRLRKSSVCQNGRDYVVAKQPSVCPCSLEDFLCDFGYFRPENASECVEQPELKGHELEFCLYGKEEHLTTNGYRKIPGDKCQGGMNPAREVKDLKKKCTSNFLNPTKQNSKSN
The experiment in a line: SPR (Biacore 8K), SORT1 on CM5 chip, siRNA-peptide conjugate as analyte, 1:1 model. How it is done:
(§2) SPR analysis was performed on Series S CM5 chips (Cytiva) using a Biacore 8K instrument (Cytiva). Sensorgrams were double-referenced by subtracting the response on both a reference flow cell and a blank sample. Human SORT1 (78-755)-His (Acrobiosystems), human SORT1 (78-755)-His(GenScript), mouse SORT1 (76-753)-His (R&D Systems), rat SORT1 (76-752)-His (GenScript), and cyno SORT1 (76-753)-His (GenScript) were diluted to 20-60 μg/mL in 10 mM sodium acetate pH 4.5 buffer and immobilized onto Series S CM5 chips using amine coupling at a flow rate of 10 μL/min for 45-100 s.
(§3) Ten start-up cycles and a blank cycle preceded each analysis run. The runs were performed by sequential injections of analyte (0-20 nM, 3-fold serial dilutions) with a 90 s association and 900 s dissociation at a flow rate of 30 μL/min, followed by two regeneration cycles with 2 M MgCl2 for 90 s at a flow rate of 10 μL/min. […] Five start-up cycles and a blank cycle preceded each analysis run. The runs were performed by sequential injections of analyte (0-25 nM) with a 150 seconds (s) association and 300 s dissociation at a flow rate of 30 μL/min, followed by a regeneration with 2 M MgCl₂ for 200 s at a flow rate of 10 μL/min. The kinetic rate constants (kₐ and kd) and the equilibrium binding constant (Kd) were calculated using a 1:1 kinetic binding model on the Biacore Insight Evaluation Software (Cytiva).
(§4) SPR analysis was performed on Series S CM5 chips (Cytiva) using a Biacore 8K instrument (Cytiva). Sensorgrams were double-referenced by subtracting the response on both a reference flow cell and a blank sample. The SPR analysis was conducted using four different SORT1 species: Human SORT1, Mouse SORT1, Rat SORT1, and Cyno SORT1. The samples were prepared according to the general procedure described above herein. The kinetic rate constants (ka and […]) and the equilibrium binding constant (Kd) were calculated using a 1:1 kinetic binding model on the Biacore Insight Evaluation Software (Cytiva).
(In general: SPR reads the build-up and loss of mass on a sensor chip optically.)

The target in a further data set is T2, rat SORT1 (76-752)-His (rat, UniProt O54861 76-752).
T2 construct: range 76-752; Amine-coupled to CM5 chip for SPR
T2 sequence (looked up): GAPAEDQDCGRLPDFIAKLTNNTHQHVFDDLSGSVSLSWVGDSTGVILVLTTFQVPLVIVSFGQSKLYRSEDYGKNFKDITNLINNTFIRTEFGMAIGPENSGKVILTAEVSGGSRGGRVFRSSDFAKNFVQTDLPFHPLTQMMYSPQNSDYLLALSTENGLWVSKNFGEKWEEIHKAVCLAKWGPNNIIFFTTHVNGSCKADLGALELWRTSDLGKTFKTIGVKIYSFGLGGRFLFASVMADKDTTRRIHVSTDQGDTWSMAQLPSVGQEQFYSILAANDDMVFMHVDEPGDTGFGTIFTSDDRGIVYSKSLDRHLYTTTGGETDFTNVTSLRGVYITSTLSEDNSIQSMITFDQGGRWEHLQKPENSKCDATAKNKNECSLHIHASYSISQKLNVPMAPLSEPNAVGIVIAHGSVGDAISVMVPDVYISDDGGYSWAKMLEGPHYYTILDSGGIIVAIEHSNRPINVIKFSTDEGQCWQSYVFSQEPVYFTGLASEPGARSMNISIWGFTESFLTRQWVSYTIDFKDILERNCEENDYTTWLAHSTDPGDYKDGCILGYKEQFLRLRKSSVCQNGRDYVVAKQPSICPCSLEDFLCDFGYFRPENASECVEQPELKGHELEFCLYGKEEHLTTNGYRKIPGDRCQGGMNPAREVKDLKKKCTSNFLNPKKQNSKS
The data set is described as above. How it is done: as §2, §3, §4

A further data set addresses T3, cyno SORT1 (76-753)-His (cyno, UniProt A0A2K5VHG2 74-751).
T3 construct: range 76-753; Amine-coupled to CM5 chip for SPR
T3 sequence: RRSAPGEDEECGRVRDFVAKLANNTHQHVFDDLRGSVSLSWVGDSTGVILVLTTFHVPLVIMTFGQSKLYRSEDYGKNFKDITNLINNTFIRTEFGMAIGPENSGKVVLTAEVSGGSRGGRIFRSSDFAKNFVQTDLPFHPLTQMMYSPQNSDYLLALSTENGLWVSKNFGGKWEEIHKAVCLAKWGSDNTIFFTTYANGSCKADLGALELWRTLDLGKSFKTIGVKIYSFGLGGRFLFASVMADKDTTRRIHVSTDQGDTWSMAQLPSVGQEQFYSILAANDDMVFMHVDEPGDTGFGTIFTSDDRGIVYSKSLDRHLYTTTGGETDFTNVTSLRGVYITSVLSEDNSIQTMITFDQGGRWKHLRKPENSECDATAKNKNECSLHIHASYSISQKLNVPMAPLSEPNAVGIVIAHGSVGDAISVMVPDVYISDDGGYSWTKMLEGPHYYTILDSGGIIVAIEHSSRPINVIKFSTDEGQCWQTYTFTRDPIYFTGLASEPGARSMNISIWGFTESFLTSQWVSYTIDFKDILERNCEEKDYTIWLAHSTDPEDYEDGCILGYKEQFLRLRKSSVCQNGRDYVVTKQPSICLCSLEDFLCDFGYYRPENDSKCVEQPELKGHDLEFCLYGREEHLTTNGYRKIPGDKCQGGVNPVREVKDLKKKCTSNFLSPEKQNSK
The description is as above. The method, then: as §2, §3, §4

We go through three molecules from patent US20260183411A1, “TARGETING SORTILIN” (priority 2024, published 2026).

Where no end group is shown, it is not given here. [ ]: non-standard residue; d: D form. Cba = N[C@@H](CC1CCC1)C(=O)O; Tle = CC(C)(C)[C@H](N)C(=O)O

As to `CC[C@H](C)[C@@H]([C@@H](CC(=O)N1CCC[C@H]1[C@H](OC)[C@@H](C)C(=O)N[C@H](C)[C@@H](O)c1ccccc1)OC)N(C)C(=O)[C@@H](NC(=O)[C@H](C(C)C)N(C)C(=O)OCc1ccc(NC(=O)[C@H](CCCNC(N)=O)NC(=O)[C@@H](NC(=O)CCCC(=O)NCCC(=O)N(C)CC(=O)N(C)CC(=O)N(C)CC(=O)N(C)CC(=O)N[C@@H](C)C(=O)N2CCC[C@H]2C(=O)N[C@@H](CCCNC(=N)N)C(=O)N[C@@H](Cc2c[nH]c3ccccc23)C(=O)N[C@@H](CC(=O)O)C(=O)N[C@@H](C)C(=O)N2CCC[C@H]2C(=O)N[C@@H](CC(C)C)C(=O)N[C@@H](CCCNC(=N)N)C(=O)N[C@@H](CC(=O)O)C(=O)N2CCC[C@H]2C(=O)N[C@@H](C)C(=O)N[C@@H](CC(C)C)C(=O)N[C@@H](CCCNC(=N)N)C(=O)N[C@@H](CCC(N)=O)C(=O)N[C@H](C(=O)N[C@@H](CC2CCC2)C(=O)O)C(C)(C)C)C(C)C)cc1)C(C)C` [Arb-SAR-Q15-PDC], the “tumor growth inhibited relative to vehicle” value in the data set on MDA-MB-231 xenograft (3 mg/kg i.v. QW×4, day 22) was determined as 98%. For the same molecule, the “body weight loss (Example 8)” value in the data set with MDA-MB-231 xenograft (PDCs 3 mg/kg, free MMAE at molar equivalency (0.6 mg/kg)) is “body weight loss tracked each other”. The “blood neutrophil counts compared to vehicle or MMAE treatment” value in data set [1] is “reduced neutrophil counts”.

B1: SORT1 peptide 2 conjugate (peptide)
peptide: APRWDAPLRDPALRQ[Tle][Cba]
modifications: also: conjugated to siRNA targeting a housekeeping gene mRNA, linker and handle not given here
notes: also called SORT1 peptide 2 siRNA conjugate; Arb-SAR-Q15_PDC2
Take B1: the equilibrium dissociation constant (Kd) (in general, the constant that tells how readily two partners part at equilibrium) with mouse SORT1 (76-753)-His came to 0.00856 µM; with rat SORT1 (76-752)-His, 0.0146 µM; with cyno SORT1 (76-753)-His, 0.00481 µM.

B2: SORT1 peptide 1 conjugate (peptide)
peptide: APRWDAPLRDPALRQLL
modifications: also: conjugated to siRNA, linker and handle not given here
notes: also called SORT1 peptide 1 siRNA conjugate
As for B2, the Kd in the data set with mouse SORT1 (76-753)-His was 0.0302 µM; with rat SORT1 (76-752)-His, 0.0492 µM; with cyno SORT1 (76-753)-His, 0.0168 µM.
